# From patent publication US20140213531A1 (POLYPHOR, published 2014)
# T1: CathepsinG, from human neutrophils (human, UniProt P08311 21-244)
# T1 sequence (looked up): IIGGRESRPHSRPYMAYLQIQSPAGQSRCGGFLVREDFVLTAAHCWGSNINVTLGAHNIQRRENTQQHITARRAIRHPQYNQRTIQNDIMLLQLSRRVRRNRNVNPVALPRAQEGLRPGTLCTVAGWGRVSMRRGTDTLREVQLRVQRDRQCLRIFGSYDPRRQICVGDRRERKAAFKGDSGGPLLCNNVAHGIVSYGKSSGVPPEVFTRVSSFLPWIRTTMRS
# T2: Elastase from human neutrophils (human, UniProt P08246 30-247, limits assumed)
# T2 sequence (looked up): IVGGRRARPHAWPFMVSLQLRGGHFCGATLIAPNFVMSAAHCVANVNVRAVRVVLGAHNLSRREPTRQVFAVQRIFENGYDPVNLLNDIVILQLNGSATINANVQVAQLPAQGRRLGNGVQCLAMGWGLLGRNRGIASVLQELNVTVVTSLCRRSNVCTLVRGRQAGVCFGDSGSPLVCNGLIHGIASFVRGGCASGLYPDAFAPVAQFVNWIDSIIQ
# T3: Chymase, from human skin (human, UniProt P23946 22-247)
# T3 sequence (looked up): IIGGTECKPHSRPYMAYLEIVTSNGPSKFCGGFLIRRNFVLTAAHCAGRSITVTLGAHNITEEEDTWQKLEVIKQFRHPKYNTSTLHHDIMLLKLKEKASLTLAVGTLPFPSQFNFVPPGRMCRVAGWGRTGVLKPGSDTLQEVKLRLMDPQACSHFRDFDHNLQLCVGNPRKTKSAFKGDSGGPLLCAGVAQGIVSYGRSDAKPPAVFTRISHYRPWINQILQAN
# B1: Example 63 (peptide)
# peptide: XCTKSDPPXCY
# HELM: PEPTIDE1{[O=C([C@@H](N[*:1])C1CCCCC1)[*:2]].C.T.K.S.D.P.P.[Nle].C.Y.[dP].P}$PEPTIDE1,PEPTIDE1,2:R3-10:R3|PEPTIDE1,PEPTIDE1,1:R1-13:R2$$$V2.0
# SMILES: CCCC[C@@H]1NC(=O)[C@@H]2CCCN2C(=O)[C@@H]2CCCN2C(=O)[C@H](CC(=O)O)NC(=O)[C@H](CO)NC(=O)[C@H](CCCCN)NC(=O)[C@H]([C@@H](C)O)NC(=O)[C@@H]2CSSC[C@H](NC1=O)C(=O)N[C@@H](Cc1ccc(O)cc1)C(=O)N1CCC[C@@H]1C(=O)N1CCC[C@H]1C(=O)N[C@@H](C1CCCCC1)C(=O)N2
# B2: Example 39 (peptide)
# peptide: XCTKSDPPICD
# HELM: PEPTIDE1{[O=C([C@@H](N[*:1])C1CCCCC1)[*:2]].C.T.K.S.D.P.P.I.C.D.[dP].P}$PEPTIDE1,PEPTIDE1,2:R3-10:R3|PEPTIDE1,PEPTIDE1,1:R1-13:R2$$$V2.0
# SMILES: CC[C@H](C)[C@@H]1NC(=O)[C@@H]2CCCN2C(=O)[C@@H]2CCCN2C(=O)[C@H](CC(=O)O)NC(=O)[C@H](CO)NC(=O)[C@H](CCCCN)NC(=O)[C@H]([C@@H](C)O)NC(=O)[C@@H]2CSSC[C@H](NC1=O)C(=O)N[C@@H](CC(=O)O)C(=O)N1CCC[C@@H]1C(=O)N1CCC[C@H]1C(=O)N[C@@H](C1CCCCC1)C(=O)N2
# B3: Example 5 (peptide)
# peptide: FCTKSDPPICY
# HELM: PEPTIDE1{F.C.T.K.S.D.P.P.I.C.Y.[dP].P}$PEPTIDE1,PEPTIDE1,2:R3-10:R3|PEPTIDE1,PEPTIDE1,1:R1-13:R2$$$V2.0
# SMILES: CC[C@H](C)[C@@H]1NC(=O)[C@@H]2CCCN2C(=O)[C@@H]2CCCN2C(=O)[C@H](CC(=O)O)NC(=O)[C@H](CO)NC(=O)[C@H](CCCCN)NC(=O)[C@H]([C@@H](C)O)NC(=O)[C@@H]2CSSC[C@H](NC1=O)C(=O)N[C@@H](Cc1ccc(O)cc1)C(=O)N1CCC[C@@H]1C(=O)N1CCC[C@H]1C(=O)N[C@@H](Cc1ccccc1)C(=O)N2
# B4: Example 44 (peptide)
# peptide: XCTKSDPPICY
# HELM: PEPTIDE1{[Nle].C.T.K.S.D.P.P.I.C.Y.[dP].P}$PEPTIDE1,PEPTIDE1,2:R3-10:R3|PEPTIDE1,PEPTIDE1,1:R1-13:R2$$$V2.0
# SMILES: CCCC[C@@H]1NC(=O)[C@@H]2CCCN2C(=O)[C@H]2CCCN2C(=O)[C@H](Cc2ccc(O)cc2)NC(=O)[C@@H]2CSSC[C@H](NC1=O)C(=O)N[C@@H]([C@@H](C)O)C(=O)N[C@@H](CCCCN)C(=O)N[C@@H](CO)C(=O)N[C@@H](CC(=O)O)C(=O)N1CCC[C@H]1C(=O)N1CCC[C@H]1C(=O)N[C@@H]([C@@H](C)CC)C(=O)N2
# B5: Example 4 (peptide)
# peptide: FCTKSDPPICS
# HELM: PEPTIDE1{F.C.T.K.S.D.P.P.I.C.S.[dP].P}$PEPTIDE1,PEPTIDE1,2:R3-10:R3|PEPTIDE1,PEPTIDE1,1:R1-13:R2$$$V2.0
# SMILES: CC[C@H](C)[C@@H]1NC(=O)[C@@H]2CCCN2C(=O)[C@@H]2CCCN2C(=O)[C@H](CC(=O)O)NC(=O)[C@H](CO)NC(=O)[C@H](CCCCN)NC(=O)[C@H]([C@@H](C)O)NC(=O)[C@@H]2CSSC[C@H](NC1=O)C(=O)N[C@@H](CO)C(=O)N1CCC[C@@H]1C(=O)N1CCC[C@H]1C(=O)N[C@@H](Cc1ccccc1)C(=O)N2
# B6: Example 40 (peptide)
# peptide: XCTKSDPPICY
# HELM: PEPTIDE1{[O=C([C@@H](N[*:1])C1CCCCC1)[*:2]].C.T.K.S.D.P.P.I.C.Y.[dP].P}$PEPTIDE1,PEPTIDE1,2:R3-10:R3|PEPTIDE1,PEPTIDE1,1:R1-13:R2$$$V2.0
# SMILES: CC[C@H](C)[C@@H]1NC(=O)[C@@H]2CCCN2C(=O)[C@@H]2CCCN2C(=O)[C@H](CC(=O)O)NC(=O)[C@H](CO)NC(=O)[C@H](CCCCN)NC(=O)[C@H]([C@@H](C)O)NC(=O)[C@@H]2CSSC[C@H](NC1=O)C(=O)N[C@@H](Cc1ccc(O)cc1)C(=O)N1CCC[C@@H]1C(=O)N1CCC[C@H]1C(=O)N[C@@H](C1CCCCC1)C(=O)N2
# B7: Example 46 (peptide)
# peptide: FCTKSDPPICS
# HELM: PEPTIDE1{F.C.T.K.S.D.P.P.I.C.S.[dD].P}$PEPTIDE1,PEPTIDE1,2:R3-10:R3|PEPTIDE1,PEPTIDE1,1:R1-13:R2$$$V2.0
# SMILES: CC[C@H](C)[C@@H]1NC(=O)[C@@H]2CCCN2C(=O)[C@@H]2CCCN2C(=O)[C@H](CC(=O)O)NC(=O)[C@H](CO)NC(=O)[C@H](CCCCN)NC(=O)[C@H]([C@@H](C)O)NC(=O)[C@@H]2CSSC[C@H](NC1=O)C(=O)N[C@@H](CO)C(=O)N[C@H](CC(=O)O)C(=O)N1CCC[C@H]1C(=O)N[C@@H](Cc1ccccc1)C(=O)N2
# B8: Example 38 (peptide)
# peptide: XCTKSDPPICT
# HELM: PEPTIDE1{[O=C([C@@H](N[*:1])C1CCCCC1)[*:2]].C.T.K.S.D.P.P.I.C.T.[dP].P}$PEPTIDE1,PEPTIDE1,2:R3-10:R3|PEPTIDE1,PEPTIDE1,1:R1-13:R2$$$V2.0
# SMILES: CC[C@H](C)[C@@H]1NC(=O)[C@@H]2CCCN2C(=O)[C@@H]2CCCN2C(=O)[C@H](CC(=O)O)NC(=O)[C@H](CO)NC(=O)[C@H](CCCCN)NC(=O)[C@H]([C@@H](C)O)NC(=O)[C@@H]2CSSC[C@H](NC1=O)C(=O)N[C@@H]([C@@H](C)O)C(=O)N1CCC[C@@H]1C(=O)N1CCC[C@H]1C(=O)N[C@@H](C1CCCCC1)C(=O)N2
# B9: Example 47 (peptide)
# peptide: FCTKSDPPICS
# HELM: PEPTIDE1{F.C.T.K.S.D.P.P.I.C.S.[dP].D}$PEPTIDE1,PEPTIDE1,2:R3-10:R3|PEPTIDE1,PEPTIDE1,1:R1-13:R2$$$V2.0
# SMILES: CC[C@H](C)[C@@H]1NC(=O)[C@@H]2CCCN2C(=O)[C@@H]2CCCN2C(=O)[C@H](CC(=O)O)NC(=O)[C@H](CO)NC(=O)[C@H](CCCCN)NC(=O)[C@H]([C@@H](C)O)NC(=O)[C@@H]2CSSC[C@H](NC1=O)C(=O)N[C@@H](CO)C(=O)N1CCC[C@@H]1C(=O)N[C@@H](CC(=O)O)C(=O)N[C@@H](Cc1ccccc1)C(=O)N2
# Molecular target: T1, CathepsinG, from human neutrophils
# Test: cell-based or functional assay
row,IC50 [nmol],Binder
1,41,B1
2,38,B2
3,56,B3
4,31,B4
5,91,B5
6,25,B6
7,87.5,B7
8,31,B8
9,64,B9

# Molecular target: T2, Elastase from human neutrophils
# Test: cell-based or functional assay
row,IC50 [nmol],Binder
1,> 100000,B1
2,> 100000,B2
3,> 100000,B3
4,> 10000,B4
5,> 100000,B5
6,> 44900,B6
7,> 100000,B7
8,> 100000,B8
9,> 10000,B9

# Molecular target: Trypsin, Iodination grade, from human pancreas (human, UniProt P07477 24-247)
# Test: cell-based or functional assay
row,% inhibition at 100 µM [%],Binder
1,96,B1
2,94,B2
3,92,B3
4,100,B4
5,96,B5
6,94,B6
7,95,B7
8,96,B8
9,87,B9

# Molecular target: Chymotrypsin, from human pancreas (human, UniProt P17538 19-263)
# Test: cell-based or functional assay
# Chymotrypsin, from human pancreas, sequence (P17538 19-263): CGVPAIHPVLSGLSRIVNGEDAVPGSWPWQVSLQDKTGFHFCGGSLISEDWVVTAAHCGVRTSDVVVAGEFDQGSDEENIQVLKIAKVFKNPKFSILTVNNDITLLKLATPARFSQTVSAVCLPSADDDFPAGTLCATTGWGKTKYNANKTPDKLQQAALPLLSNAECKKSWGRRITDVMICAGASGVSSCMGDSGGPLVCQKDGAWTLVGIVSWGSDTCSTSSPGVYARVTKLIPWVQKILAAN
row,% inhibition at 100 µM [%],Binder
1,11,B1
2,7,B2
3,3,B3
4,24,B4
5,1.8,B5
6,19,B6
7,0,B7
8,4,B8
9,1,B9

# Molecular target: T3, Chymase, from human skin
# Test: cell-based or functional assay
row,% inhibition at 100 µM [%],Binder
1,7,B1
2,0,B2
3,0,B3
4,3,B4
5,0,B5
6,8,B6
7,10.2,B7
8,1,B8
9,8.2,B9

# Molecular target: Thrombin, from Human Plasma, high activity (human, UniProt P00734 328-622)
# Test: cell-based or functional assay
row,% inhibition at 100 µM [%],Binder
1,1,B1
2,2,B2
3,0.5,B3
4,9,B4
5,0,B5
6,1,B6
7,6.9,B7
8,0,B8
9,0,B9

# Molecular target: Coagulation Factor Xa, from human plasma (human, UniProt P00742 41-488, limits assumed)
# Test: cell-based or functional assay
# Coagulation Factor Xa, from human plasma, sequence (P00742 41-488 limits assumed): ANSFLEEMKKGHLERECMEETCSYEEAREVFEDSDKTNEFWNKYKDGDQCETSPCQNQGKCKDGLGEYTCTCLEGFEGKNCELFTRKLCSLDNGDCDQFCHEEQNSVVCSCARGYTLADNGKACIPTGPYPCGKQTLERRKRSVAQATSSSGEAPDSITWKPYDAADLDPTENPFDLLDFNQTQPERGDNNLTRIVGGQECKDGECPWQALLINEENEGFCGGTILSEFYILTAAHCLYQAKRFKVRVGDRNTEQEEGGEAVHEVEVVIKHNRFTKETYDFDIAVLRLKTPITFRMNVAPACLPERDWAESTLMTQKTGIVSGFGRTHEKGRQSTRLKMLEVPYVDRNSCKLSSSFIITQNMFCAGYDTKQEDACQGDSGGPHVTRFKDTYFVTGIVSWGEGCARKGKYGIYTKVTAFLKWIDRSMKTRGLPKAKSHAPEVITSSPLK
row,% inhibition at 100 µM [%],Binder
1,0,B1
2,0,B2
3,0.2,B3
4,9,B4
5,2.4,B5
6,3,B6
7,12.2,B7
8,0,B8
9,9.3,B9

# Molecular target: Urokinase from human urine (human, UniProt P00749 21-431, limits assumed)
# Test: cell-based or functional assay
row,% inhibition at 100 µM [%],Binder
1,0,B1
2,2,B2
3,5.7,B3
4,14,B4
5,5.4,B5
6,10,B6
7,5.8,B7
8,1,B8
9,6.3,B9

# Molecular target: Tryptase, from human lung (human, UniProt Q15661 31-275, limits assumed)
# Test: cell-based or functional assay
# Tryptase, from human lung, sequence (Q15661 31-275 limits assumed): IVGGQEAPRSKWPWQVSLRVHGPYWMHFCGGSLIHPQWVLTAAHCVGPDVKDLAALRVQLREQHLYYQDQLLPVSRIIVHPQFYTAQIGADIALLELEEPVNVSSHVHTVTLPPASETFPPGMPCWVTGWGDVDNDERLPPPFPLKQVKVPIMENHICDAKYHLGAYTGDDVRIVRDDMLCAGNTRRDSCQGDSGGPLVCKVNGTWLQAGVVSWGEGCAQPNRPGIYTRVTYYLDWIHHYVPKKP
row,% inhibition at 100 µM [%],Binder
1,50,B1
2,34,B2
3,74,B3
4,50,B4
5,0,B5
6,33,B6
7,44.1,B7
8,11,B8
9,0,B9
